Key:
[1] = target: T1, NS3 (nonstructural protein 3, protease-helicase) (Hepatitis C virus genotype 1b (con1b), UniProt Q9WMX2 1027-1657); experiment: fluorescence anisotropy; 100 mM KCl; 25 mM MOPS pH 6.5, 100 mM KCl, 0.1 mM EDTA, 2 mM beta-mercaptoethanol, 0.1 mg/ml BSA, 37 C, 30 min; RNA 2 nM unless stated, folded in 100 mM KCl; conditions: protein: recombinant, label: 3'-6FAM
[2] = target: T1, NS3 (nonstructural protein 3, …); experiment: fluorescence anisotropy; 100 mM KCl; 6 nM RNA; 25 mM MOPS pH 6.5, 100 mM KCl, 0.1 mM EDTA, 2 mM beta-mercaptoethanol, 0.1 mg/ml BSA, 37 C, 30 min; RNA 2 nM unless stated, folded in 100 mM KCl; conditions: protein: recombinant; label: 3'-6FAM; parallel G4 with 3' overhang 20 nt
[3] = target: T1, NS3 (nonstructural protein 3, …); experiment: fluorescence anisotropy; 100 mM KCl; quadratic fit; 25 mM MOPS pH 6.5, 100 mM KCl, 0.1 mM EDTA, 2 mM beta-mercaptoethanol, 0.1 mg/ml BSA, 37 C, 30 min; RNA 2 nM unless stated, folded in 100 mM KCl; conditions: protein: recombinant; label: 3'-6FAM; single-stranded
[4] = target: T1, NS3 (nonstructural protein 3, …); experiment: fluorescence anisotropy; 100 mM KCl; same data, two-sites fit, Kd1; 25 mM MOPS pH 6.5, 100 mM KCl, 0.1 mM EDTA, 2 mM beta-mercaptoethanol, 0.1 mg/ml BSA, 37 C, 30 min; RNA 2 nM unless stated, folded in 100 mM KCl; conditions: protein: recombinant; label: 3'-6FAM; single-stranded
[5] = target: T1, NS3 (nonstructural protein 3, …); experiment: fluorescence anisotropy; 100 mM KCl; 5.4 nM RNA; 25 mM MOPS pH 6.5, 100 mM KCl, 0.1 mM EDTA, 2 mM beta-mercaptoethanol, 0.1 mg/ml BSA, 37 C, 30 min; RNA 2 nM unless stated, folded in 100 mM KCl; conditions: protein: recombinant; label: 3'-6FAM; parallel G4 with 3' overhang 20 nt

T1 sequence (Q9WMX2 1027-1657): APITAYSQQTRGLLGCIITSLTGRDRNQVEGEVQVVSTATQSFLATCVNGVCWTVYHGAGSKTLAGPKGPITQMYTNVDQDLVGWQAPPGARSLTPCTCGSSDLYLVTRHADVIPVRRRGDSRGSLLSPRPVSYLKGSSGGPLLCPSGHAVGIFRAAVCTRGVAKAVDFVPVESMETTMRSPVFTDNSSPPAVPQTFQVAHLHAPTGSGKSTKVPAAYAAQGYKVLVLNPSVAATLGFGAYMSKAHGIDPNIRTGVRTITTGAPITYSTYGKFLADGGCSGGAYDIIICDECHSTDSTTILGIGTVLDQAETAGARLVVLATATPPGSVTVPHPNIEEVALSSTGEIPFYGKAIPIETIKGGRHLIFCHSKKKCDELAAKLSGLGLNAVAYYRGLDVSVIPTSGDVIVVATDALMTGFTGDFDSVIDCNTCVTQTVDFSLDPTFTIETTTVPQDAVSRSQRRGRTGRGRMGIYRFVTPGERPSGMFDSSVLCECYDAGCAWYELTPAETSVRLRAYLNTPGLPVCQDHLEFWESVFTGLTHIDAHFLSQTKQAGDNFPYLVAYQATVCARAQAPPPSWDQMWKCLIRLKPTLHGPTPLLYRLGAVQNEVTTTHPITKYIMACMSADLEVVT

In the case of AAGGGUGGGUGGGUGGGAA (structured_RNA) [NONHCVG4], the Kd ([1]; parallel G4 (three-tetrad)) is reported as 23 ± 7 nM.

With AAGGGCUGCGGGUGGGCAGGGAA (structured_RNA) [HCVG4] the Kd ([1]; parallel G4 (three-tetrad)) was 17 ± 4 nM.

Work on AAGGGCUGCGGGUGGGCAGGGAAAAAAAAAAAAAAAAAAAA (structured_RNA) [HCVG4-A20] yielded a Kd [2] of 11 ± 3 nM.

AAGGGUGGGUGGGUGGGAAAAAAAAAAAAAAAAAAAA (structured_RNA) [NONHCVG4-A20] was tested, and the Kd [2] was 12 ± 3 nM.

AAAAAAAAAAAAAAAAAAAA (ssRNA) [A20] gave a Kd [3] of 6 ± 1 nM and a Kd [4] of 4.9 nM.

Work on AAGGGAGGGGGGGUCCUGGAGGAA (structured_RNA) [NEGG4] yielded a Kd ([1]; parallel G4 (two-tetrad)) of 19 ± 5 nM.

With AAGGGAGGGGGGGUCCUGGAGGAAAAAAAAAAAAAAAAAAAA (structured_RNA) [NEGG4-A20] the Kd [5] was 6 ± 2 nM.

Reference: publication PMC9582721, “Hepatitis C virus nonstructural protein NS3 unfolds viral G-quadruplex RNA structures”
